Measured values reported in US20040110663A1.

Biological target: Sonic hedgehog (Shh), human, as secreted by human cancer cell lines in co-culture (human)
Experiment: cell-based or functional assay

Shh blocking antibody 5E1
inhibition of luciferase expression in S12 cells (gli-Luc assay, S12/RT-4 co-cultures): 85 ng/mL | inhibition of luciferase expression in S12 cells (gli-Luc assay, S12/RT-4 co-cultures), IC90: 0.5 µg/mL
